Assay results: US20260184782A1 (TWIST BIOSCIENCE, published 2026)
Changes are numbered by the printed parent chain.

Molecular target: T1, recombinant human TIGIT (human, UniProt Q495A1 22-141, limits assumed)
T1 construct: recombinant human TIGIT used in Carterra SPR; also called hTIGIT
T1 sequence (looked up): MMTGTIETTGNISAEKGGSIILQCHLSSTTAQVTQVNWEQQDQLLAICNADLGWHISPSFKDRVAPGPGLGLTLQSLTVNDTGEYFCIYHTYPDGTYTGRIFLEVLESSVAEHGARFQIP
Test: SPR Carterra, average
Protocol: Binding affinities of VHH-Fc proteins to recombinant human TIGIT were measured by SPR using a Carterra instrument (Table 10A). […] Average values reported from measurements from 1-2 samples.

B1: TIGIT-SC160 (Fc fusion)
VHH: EVQLVESGGGLVQPGGSLRLSCAASGNTFSGGFMGWFRQAPGKEREWVASVLRGGYTWYADSVKGRFTISADNSKNTAYLQMNSLKPEDTAVYYCAREGRSSSPWFDPWGQGTLVTVSS
notes: VHH-Fc fusion in assay
In the case of B1, the Kd is reported as 31.6 nM, the koff is reported as 0.00265 s⁻¹ and the kon is reported as 105000 M⁻¹ s⁻¹.

B2: TIGIT-SC6 (Fc fusion)
VHH: B1 VHH with R97I, E98S, G99P, R100V, S101A, S102W, S103H, P104A, W105K, P108S
notes: VHH-Fc fusion in assay
Binder B2 has a Kd of 19.4 nM, a koff of 0.00129 s⁻¹ and a kon of 66700 M⁻¹ s⁻¹.

B3: TIGIT-SC110 (Fc fusion)
VHH: B1 VHH with E98D, G99H, R100T, S101A, S102M, S103V, P104A, W105P, P108Y
notes: VHH-Fc fusion in assay
With B3 the Kd was 1.44 nM, the koff was 0.000765 s⁻¹ and the kon was 531000 M⁻¹ s⁻¹.

B4: TIGIT-SC114 (Fc fusion)
VHH: B1 VHH with R97T, E98V, R100G, S101R, S102Q, S103R, P104T, W105L, P108D
notes: VHH-Fc fusion in assay
Binder B4 has a Kd of 45.2 nM, a koff of 0.00227 s⁻¹ and a kon of 50700 M⁻¹ s⁻¹.

B5: TIGIT-SC155 (Fc fusion)
VHH: B1 VHH with R97G, E98D, G99Y, S101G, S102F, S103E, P104M, W105A
notes: VHH-Fc fusion in assay
Work on B5 yielded a Kd of 126 nM, a koff of 0.00647 s⁻¹ and a kon of 51300 M⁻¹ s⁻¹.

B6: TIGIT-SC158 (Fc fusion)
VHH: B1 VHH with N27F, G31P, G32S, F33W
notes: VHH-Fc fusion in assay
B6 showed a Kd of 143 nM, a koff of 0.00154 s⁻¹ and a kon of 18200 M⁻¹ s⁻¹.

B7: TIGIT-SC159 (Fc fusion)
VHH: B1 VHH with N27F, S30D, G31R, G32S, F33W
notes: VHH-Fc fusion in assay
Binder B7 has a Kd of 14.6 nM, a koff of 0.00144 s⁻¹ and a kon of 92000 M⁻¹ s⁻¹.

B8: TIGIT-SC134 (Fc fusion)
VHH: EVQLVESGGGLVQPGGSLRLSCAASGFTLENNMMGWFRQAPGKEREFVAAISASGTLRAYADSVKGRFTISADNSKNTAYLQMNSLKPEDTAVYYCARWYRVNNWSPGYYYYMDVWGQGTLVTVSS
notes: VHH-Fc fusion in assay
B8 showed a Kd of 1.47 nM, a koff of 8.98e-05 s⁻¹ and a kon of 60900 M⁻¹ s⁻¹.

B9: TIGIT-SC113 (Fc fusion)
VHH: EVQLVESGGGLVQPGGSLRLSCAASGFTLNDYAMGWFRQAPGKERELVAWIARYDGSTLYADSVKGRFTISADNSKNTAYLQMNSLKPEDTAVYYCTWGDGYNLGAFDIWGQGTLVTVSS
notes: VHH-Fc fusion in assay
For B9, the Kd was 1.88 nM, the koff was 0.000483 s⁻¹ and the kon was 257000 M⁻¹ s⁻¹.

B10: TIGIT-SC112 (Fc fusion)
VHH: B9 VHH with F27R, N30R, D31R, A33V, W50A, A52D, R53W, Y54S, D55G, T58A
notes: VHH-Fc fusion in assay
B10 was tested, and the Kd was 13.2 nM, the koff was 0.00393 s⁻¹ and the kon was 297000 M⁻¹ s⁻¹.

B11: TIGIT-SC169 (Fc fusion)
VHH: B9 VHH with W98T, G99E, D100L, G101R, Y102W, N103E, G105Q, A106Q, F107P, I109Y
notes: VHH-Fc fusion in assay
B11 showed a Kd of 978 nM, a koff of 0.206 s⁻¹ and a kon of 211000 M⁻¹ s⁻¹.

B12: TIGIT-SC20 (Fc fusion)
VHH: EVQLVESGGGLVQPGGSLRLSCAASGNTFSGGFMGWFRQAPGKEREWVASVLRGGYTWYADSVKGRFTISADNSKNTAYLQMNSLKPEDTAVYYCATPRGYWGQGTLVTVSS
notes: VHH-Fc fusion in assay
Work on B12 yielded a Kd of 2.7 nM, a koff of 0.0007 s⁻¹ and a kon of 260000 M⁻¹ s⁻¹.

B13: TIGIT-SC13 (Fc fusion)
VHH: EVQLVESGGGLVQPGGSLRLSCAASGRTFSFMGWFRQAPGKEREWVASVLRGGYTWYADSVKGRFTISADNSKNTAYLQMNSLKPEDTAVYYCATESMDYWGQGTLVTVSS
notes: VHH-Fc fusion in assay
Work on B13 yielded a Kd of 3.08 nM, a koff of 0.000199 s⁻¹ and a kon of 60100 M⁻¹ s⁻¹.

B14: TIGIT-SC24 (Fc fusion)
VHH: EVQLVESGGGLVQPGGSLRLSCAASGFTFDRSWMGWFRQAPGKEREVVASITSGGSTYYADSVKGRFTISADNSKNTAYLQMNSLKPEDTAVYYCAADVWYGSTWRNWGQGTLVTVSS
notes: VHH-Fc fusion in assay
Binder B14 has a Kd of 3.08 nM, a koff of 0.000894 s⁻¹ and a kon of 506000 M⁻¹ s⁻¹.
